Data: patent publication US10039812B2, “Therapeutic for treating clostridium difficile infection” (priority 2012, dated 2018)

B1: RNase: RNaseA enzyme used to digest biofilm constituents (protein, UniProt P61823 27-150, looked up)
Ribonuclease pancreatic: KETAAAKFERQHMDSSTSAASSSNYCNQMMKSRNLTKDRCKPVNTFVHESLADVQAVCSQKNVACKNGQTNCYQSYSTMSITDCRETGSSKYPNCAYKTTQANKHIIVACEGNPYVPVHFDASV
B2: proteinase K: a proteinase used to digest biofilm constituents (protein, UniProt P06873 106-384, looked up)
Proteinase K: AAQTNAPWGLARISSTSPGTSTYYYDESAGQGSCVYVIDTGIEASHPEFEGRAQMVKTYYYSSRDGNGHGTHCAGTVGSRTYGVAKKTQLFGVKVLDDNGSGQYSTIIAGMDFVASDKNNRNCPKGVVASLSLGGGYSSSVNSAAARLQSSGVMVAVAAGNNNADARNYSPASEPSVCTVGASDRYDRRSSFSNYGSVLDIFGPGTSILSTWIGGSTRSISGTSMATPHVAGLAAYLMTLGKTTAASACRYIADTANKGDLSNIPFGTVNLLAYNNYQA

Experiments:
[1] = system: C. difficile R20291 biofilm; assay: DNase, RNase and proteinase K digests of biofilm in liquid culture; conditions: 15 minutes at the concentrations indicated (FIG. 8)
[2] = system: C. difficile 630Δerm biofilm; assay: DNase, RNase and proteinase K digests of biofilm (floc) in liquid culture
[3] = system: C. difficile strain 630Δerm; assay: Inhibition of biofilm formation in TC flasks; conditions: 10 mg/ml in the growth media; incubated statically for six days (FIG. 9)
[4] = 1 mg/ml, 15 minute treatment, room temperature

| Molecule | Degradation of the biofilm [1] | Degradation of the biofilm (floc produced in static culture) ([2]; 100 ug/ml, 15 minute treatment, room temperature) | Degradation of the biofilm (floc produced in static culture) [2, 4] | Formation of biofilm in liquid media [3] | Degradation of the biofilm (floc produced in static culture) ([2]; concentration increased to 2 mg/ml proteinase K (data not shown)) | Degradation of the biofilm (floc produced in static culture) ([2]; incubation time increased to 24 hours (data not shown)) |
| --- | --- | --- | --- | --- | --- | --- |
| B1 | only degraded by DNase treatment | did not disrupt the biofilm | did not disrupt the biofilm | – | – | – |
| B2 | only degraded by DNase treatment | – | partial degradation with proteinase K was not observed | decreases biofilm formation | partial degradation | partial degradation |
